# Test results: a protein production outcome set (Wang et al. 2014)
# Assay: label from the status in PepcDB records
row,Sequence,protein production
1,MATLLGFSQTKFHHCGVWISTPPCSSSSTVVSMVGLNRTDSKKLRSDFLGQIGYEDRRQVRHSYCRSSLAVKMSWDGPLASVKLIIQGKNLELSEPIKQHVEEKVGKSVQKHSHLVREVDVRLSVRGGEFGKGPRIRRCEVTLFTKKHGVVRAEEDAETVYACIDLVSTIIQRKLRKIKEKDSDHGRHMKGFNRLKVREPVIEPVVEDVEDSTDSSVGEEEEEDDLIKEIVRTKTFEMPPLTVAEAVEQLELVSHDFYGFQNEETGEINIVYKRKEGGYGLIIPKKDGKAEKVEPLPTEQLNEHSFAE,failed
2,MDTPILIPTDMNRIPFFYLLQISDPLFPIGGFTQSYGLETYVQKGIVHDAETSKKYLESYLLNSFLYNDLLAVRLSWEYTQKGNLNKVLELSEVFSASKAPRELRAANEKLGRRFIKILEFVLGENEMFCEMYEKVGRGSVEVSYPVMYGFCTNLLNIGKKEALSAVTYSAASSIINNCAKLVPISQNEGQKILFNAHGIFRRLLERVEELDEEYLGSCCFGFDLRAMQHERLYTRLYIS,failed
3,MKRNIFSIGFISVVLFIVLGACVGLAASEALQGSEQEINSAFSNQITPVISGDYIVWQDERDGNWDIYMYDMSAGRTETSLFNGPKDEIEPAISGSRVVLADNRRGNYDIYMYDISTKKEVQVTSDKSEQKEPAISEDIIVWTDRRNQNTDIYMYDLTTKEETRITDDKADQSQPAVWGNIIVWKDTRNGNEDIYMYDISAGKESPVVMDSAAQTNPVIEGDYIVWEDRRAGNLDIYMYEISTGKEKPVCTDPSPQKTPAISDGRIVWADGRIKGTNIFIYDIATGQEKTVSTASEYESNPSIDGNRIVWQDKRKGAMDIFMFTEDASETESTAGEKTEAETGSKAPLGIYPVSAGVIAAYLMINSGKKGKRKT,failed
4,LAYEELRQREAQTAMQLAVNNALLTIKDRSRMLLAVCEQIDKLVPCTFLGIRVMDRDGNFRIFDNFMRETPSGFFPVSAHEKLDVPDFAEMARESFSLITSPGCFSGEAFQLLCDKYRLVGLVREKFNICSLISVRLWDLPGSCAGLIISDTSRAFDEHDQETVGLIVPQLSLALQNYLAFEEIDKLRRKLEGEKAYLFEEIKATHD,failed
5,TGDASKCLATGPGIASTVKTGEEVGFVVDAKTAGKGKVTCTVLTPDGTEAEADVIENEDGTYDIFYTAAKPGTYVIYVRFGGVDIPNSPFTVMATDGEVTAVEEAPVNACP,not failed
6,MLIGAIVAKDDTWLLWAIIIVWATVSLFLEQRYRWASTISGAIIALVGAMLLSNFKVIPMSAPVYDTVWDYIVPLSIPLLLFSSNILKIWKESRRLLVIFFVASIGTMIGTTVGFMILNQWIPYLNKIGAMMTGSYIGGGVNFAALSSKLETPSEMISSTVVADNSVMALYFMLLIALPSLPLIKKQFKSDYESKSTPESQQAYWEPKKIQLLDIAFSIASAVTLVAVSFKGADLIQQWMPQHNVVLTLIVSFLGDPYLLLTTLTLIVVAVWGDFFESLAGASEIGTFLIYIFFVVIGTPASFATIITTAPLLFIFVIIILVFNLGLSLIFGKIFGFKIEEILLASNATAGGPTTAAALAIGKGWTKVVGPILIIGTLGYVIGNYAGTLMYQLLTYLG,failed
7,MKAYTKLLASLVLLSGAYGAPGFANTPELSDKTFRTVNKVQELIATEKYADALSKLNSALSSTSKKQYDRAVLLQQMGFLYSLQDDYPKAAKYFADALSLNALPVPVAQQVRYSLAQLYLAEGQFKKSVATMNEWFKIAETTEEKPQAHAYITLASAYVQLEDYKNAIPPAKQAIAMSKEPSESWYQLLMSAHYELKQFKSVAGVLKILTTKYPKNKRYWTQLSGIYMELNQERNALSTLEMAHKMGLLEGEKEYLRLVNFQAYQGVPFRAAKTLQAAFDNGHVERNAKNLETLGSFWQQAQELEQAIDVYQQAYNLAPQAKTQIKIARLMILDKQYTEATKFTQNAAPDAKHEQKGELSYIRGMAYFELNQPSNALKAMKSAAQSPDMRAMASPWINFLESQG,failed
8,MQDSRPHPHDWNVSTDEAKRIQRRLASEVTERALPDGGETVAGIDVSVRDDTAQAAVSVLRLPELDVVDEATHRCEVPFPYVPGLLSFREMPAVLPALERLHSTPDVFVTDSHGAAHPRRFGLACHLGVLLDAPAIGVAKSILVGAPQGELGPEKGSRVPLVDDGETVGTVLRTRTDVNPVYVSVGHRCTLDGAADLMLDCSPRYKIPEPTRQAHKLSRAEG,failed
9,MNYHWSDHPDPNKWADCVHCGMCLEACPTYELTGHEQQSPRGRVHLIKSVAEGKLEVNEAFADPVFTCLDCRACETACPADVEVGGLIEEARGQIRQALPLSGWKLEHHHHHH,failed
10,MQVEETSIEEIQTKIKRLNSKAGQMKMDLHDLAEGLPTDYTQLMDVAAATYEIYRQLDELKQELKKLENAK,failed
11,MDFVFDIDGTLCFDGMSLSKEIQGILERAQIDYGHRVTFATARSYRDTIGILGDKLSLSKIIGLNGATLHENGHLVDSYYLQSDFFSTIISYCHRHQIPYFVDEVFNYATYQASKIPFIAYVDPQKRGELLEVSKIEKPIKMVLYFGDQLGRADQMLAELNRFGLSSHFFHEFEKCLYINPIAVDKGKATKKLFGNRFIAFGNDKNDISMFDAAHYSVQVGDFDELTPYANLRVSRESVHEGITTLFEKYKGIT,failed
12,MNFDTIIIGGGMAGLSCALRCLEAGLKTAVIASGQSALHFSSGSIDVLAKTPSGKHVINPMDSLETFSKEYPSHPYAALGKETVERAINWYKTTLSAIGVPLTSQKDGLNHYRLTPLGTMKSTWLSQPFVHQFPMDLEKNKTQKMVLITIDGFRDFQPKLAQDNLKQITQLSDLEIATASISLSAFNDIQRNHCELRSIDISRLLSKRANRQELAYALQQHANPGDLVVLPSIFGNGTGLSYLREIEQLTKLTLCEVPTMPPSLLGIRLEESMKHAFIELGGTMLNGDHVVQGEFSYVDKSDPEHSHYRLNRLFTKNHGDFPLQAKQFVLATGSFFSQGLKANVDSMIEPIFGLDIAQSDKRTDWYSHDFFSTQSHPFLSMGIKTTANFQAIKSGHVIDNLYCAGAILSGYNPILEGSGSGVAISSGFHAAESIIEQLQCSDSLQNNNTKAEVAL,failed
13,KRRMELVGEYAGGITLIEDFAHHPTAIRLTLGAIAEHYPGRRIIACFEPRSNTTSRNIFQHELSECFGDAAIVVLGKVNRPERYAPEERLDAALLCRELKANGKRVFAAGSENYPEDIVRFIEAEQQPGDVVVLLSNGSFSGLKEMLAESFQKNS,failed
14,MDRIVEIEKYSFDETYETSLRPSNFDGYIGQESIKKNLNVFIAAAKKRNECLDHILFSGPAGLGKTTLANIISYEMSANIKTTAAPMIEKSGDLAAILTNLSEGDILFIDEIHRLSPAIEEVLYPAMEDYRLDIIIGSGPAAQTIKIDLPKFTLIGATTRAGMLSNPLRDRFGMQFRLEFYKDSELALILQKAALKLNKTCEEKAALEIAKRSRSTPRIALRLLKRVRDFADVNDEEIITEKRANEALNSLGVNELGFDAMDLRYLELLTAAKQKPIGLASIAAALSEDENTIEDVIEPYLLANGYIERTAKGRIASAKSYSALKLNYEKTLFEE,not failed
15,MSIREVIMDYLENSSKKALSVEELSVALHMNKAKDYKVFVKTLASLEAEHLLNFTAKGKVELAEKEEAKVVISGIFRANAAGFGFVSIDAEEPDVFVARGQTAFALDGDEVFIEIDKNANALKGTSAEGHVVEIIRHDVHQVVGTFVALNDDEKEQTGLIGFVKSRNKKIPYRVYLENEGLIPENKAIVRVEITHYPDKEFPQTMQGLVTEIIGQADDQGIDVLEVLASMDIVSEFPKEVLDQAEAVPEEVPENEIVGRVDYRNEITFTIDGADAKDLDDAVHAKRLENGNYELGVHIADVSHYVTENSPLDKEAYERGTSVYVTDRVVPMLPERLSNGICSLNPRINRLTQSCVMEISPEGRVINYQISQSIIKTTERMTYDAVNQMIAGDEAALENYAKIADSVKIMVELHHILEAMRKRRGAIDFDTVEAKIIVNEKGLPIEIRKRTRGIAERMIESFMLEANETVATHFEAHGLPFIYRIHEQPKADRLQRFIDFAATFGMQIEGTSNGIDQKVLQAFMKKIKGQPGEMVLSTMLLRSMQQARYSENNEGHFGLAAENYTHFTSPIRRYPDLLVHRLIREIGEGKTPANILQKWEDKIPEIAEHSSHRERRAVDAEREVEKMKKAEFMEEHVGEEYEGIIASVTRFGMFIELENTIEGLVHISTLKGDYFNYQERMLALIGERSGLTFKIGQPIKIKVVKADRMTGEIDFEYLPSELDLIDKAAKAKKKPDHKGRKKSNQSLKVKSVAPKSTDKSANKSKNGRRADEKFEFDKKKKKSAKKPFYSKAAKGKFTDKKDNGKKFTDGRKKPHKRG,failed
16,MTIYNQAIESYDEKMAKDVIMLAGRILLESGAEGSRVEDTMTRIAITLGHKESNSFVTNTVINFMLHDESYPRMYRIRTRDTNLHRISRTNGISRRLALGDISLEDAFQELQKIYQEQSIKNHYLFYKFIAAAVISVSFLYLQGGHLTDVLTALLAGSFGYIVVEILQQKLHAQFIPEFMGALVIGLVTIIGHNLIPGGSISTIIIAAVMPIVPGVLITNAIQDLFGGHMLMFTTKSLEALVTAFGIGAGVSTVLIIF,failed
17,MPDIVNTEQAQAWNGPEGAHWARNQDRWNAVNEGFDEPLLDAAGITGEDRVLDLGCGSGQTTRRAALRAPRGHVLGLDLSGPMLAEARSRAEREGVANVSFAQGDAQVHPFGAGAFDAAVSRYGVMFFADPVAAFGNVGRALRPGGRLAFVCPADAALNGWVTAMASLREVLPVGDFGQPGLPGMFSLAAPDRIGDVLTAAGFAGIDVNQVQAHGTWGRDAEDAAEFLLGTGPGRHLMERADPTARARARGILTDHLRTHEAADGTVRLLSTSWLTTATRPAATA,failed
18,MTCAYRREIHHAHVAIRDWLAGDSRADALDALMARFAEDFSMVTPHGVVLDKTALGELFRSKGGTRPGLRIEIDGESLLASGVDGATLAYREIQSDAAGRSERLSTVVLHRDDEGRLYWRHLQETFCG,not failed
19,MNSHCSHTFITDNRSPRARRGHAMSTLHKVKAYFGMAPMEDYDDEYYDDRAPSRGYARPRFDDDYGRYDGRDYDDARSDSRGDLRGEPADYPPPGYRGGYADEPRFRPREFDRAEMTRPRFGSWLRNSTRGALAMDPRRMAMMFEDGHPLSKITTLRPKDYSEARTIGERFRDGSPVIMDLVSMDNADAKRLVDFAAGLAFALRGSFDKVATKVFLLSPADVDVSPEERRRIAETGFYAYQ,failed
20,LDLMKEKNLIQKFFKELIKDDGGLSAYGEAQVMKYLEMGAIDTLIVTEDIGITRVTVKCNNCDYAQEVNVKTNEMFKFEEQLKTKACPTCGGAMYIDEEKDIIEHLSDLCHMHNTDIIVVSTDTEEGSQISRAFKGMAAILRYKL,not failed
21,MGSSHHHHHHSSGLVPRGSHRSEFSSRSGYGEYVQQTLQPGMRVRMLDDYEEISAGDEGEFRQSNNGIPPVQVFWQSTGRTYWVHWHMLEILGPEEATEDKASAAVEKGAGATVLGTAFPS,not failed
22,MNIEEAKELVDNSKFYGKTSSVIKAEVRDIIDQLNQPKPEVPQCVADWIEECKEEDLTLKGLFSNSDMPAKIFDWIFGSDENCRLMAEAWINGYTVEKEKLYTVDLPNGQPLVRGINTLYFSQNLATENVKLTESEIRKDFEWAWQFAEEVTE,failed
23,MMMHPMNKTNKRDKMEKRNNPSALNIFMSFLKLGMVAFGGPTAIAYVREMVVDEKKWMDEKSFNNGVALAQIIPGASVMQVAAYVGFYLRGIVGAFAAFMAYALPAFLIMLFLTIIYMHVKSLPKTVSIFEALRIIVVSLAANGTLNFSKKNIRTIGDVFLLLISALLFILKFSPFIVIFVSIFIGFLMYRRDITKLSLKIDIPREKLRIYKYVAYLLFGVFLFNLILYMIDSKLFLLSTLMMKVDVFAFGGGYGSVPFMLHEVVDKYNLMDAKTFMDGIALGQITPGPIVITATFVGYIVGGFIGSIISTISVFTPSFIILLSSIPIFDSLKHNTIFKNILHMILVSFVGLLVAVTIRFALLVDWSIQALIIFIVSFLLLYKKYNMLLVVLLSLVLGYLIL,failed
